Target: the molecule itself
Assay: yeast two-hybrid bait-prey matrix (LacZ and HIS3 reporters)

B1: HCV core protein, full-length (capsid) (other)
chain: MSTNPKPQRKTKRNTNRRPQDVKFPGGGQIVGGVYLLPRRGPRLGVRATRKTSERSQPRGRRQPIPKARRPEGRTWAQPGYPWPLYGNEGCGWAGWLLSPRGSRPSWGPTDPRRRSRNLGKVIDTLTCGFADLMGYIPLVGAPLGGAARALAHGVRVLEDGVNYATGNLPGCSFSIFLLALLSCLTVPASA
notes: mature; also called capsid protein; p22
binding result: no binding

B2: truncated HCV capsid protein C-delta-115 (other)
chain: MSTNPKPQRKTKRNTNRRPQDVKFPGGGQIVGGVYLLPRRGPRLGVRATRKTSERSQPRGRRQPIPKARRPEGRTWAQPGYPWPLYGNEGCGWAGWLLSPRGSRPSWGPTDPRRR
notes: also called CD115; CoreD115
binding result: binds

— patent US20020102534A1 (INSTITUT PASTEUR AND INSTITUT NATIONAL DE LA SANTE ET DE LA …, published 2002)
